± gives the standard deviation of the averaged measurements.
Each sequence was assayed on Saccharomyces cerevisiae (assay: protein stability index of tFT-peptide fusion (C-terminal peptide) (PSI (0-1 scale)); higher = more stable (slower turnover)). Conditions: genetic background: wild type; temperature: 30 C.
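Note: PSI is a weighted mean of sequencing reads over stability bins, variants kept only with over 10 reads, mCherry proximal and sfGFP distal, peptide attached via GGGS linker.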

Row | Sequence | protein stability index
1 | VRNPPPLTRTRP | 0.687 ± 0.0097
2 | VRRFRYCLGFFR | 0.663 ± 0.059
3 | VRRGHEGCGLRY | 0.717 ± 0.025
4 | VRRGRQHLRYGR | 0.708 ± 0.045
5 | VRRSGMNIVVLP | 0.63872 ± 0.00027
6 | VRRSNKTIKRKK | 0.746 ± 0.1
7 | VRRVWYGSFSRL | 0.81 ± 0.012
8 | VRSFSFSALLAV | 0.58 ± 0.024
9 | VRSVSCPCCAHF | 0.7058 ± 0.0056
10 | VRVGVGGVSEFE | 0.67062 ± 0.00015
11 | VRVRGDPLVCPL | 0.592 ± 0.0096
12 | VRVSGVSVVRFW | 0.667 ± 0.012
13 | VRWGVGVGVGWD | 0.682 ± 0.057
14 | VSAPRLRVSCNP | 0.696 ± 0.014
15 | VSARRTLRFSFE | 0.685 ± 0.016
16 | VSCGGSARRASP | 0.704 ± 0.0078
17 | VSCLPFLDLMSW | 0.701 ± 0.012
18 | VSEKICNCLGKT | 0.657 ± 0.088
19 | VSGAAFMSSAFW | 0.753 ± 0.045
20 | VSGLKYSVLVGG | 0.555 ± 0.015
21 | VSLISCGGVYAG | 0.688 ± 0.015
22 | VSLVDRFVLAIV | 0.5619 ± 0.0011
23 | VSPGPSPPPPPR | 0.622 ± 0.072
24 | VSPLSHPPSPAP | 0.702 ± 0.021
25 | VSRPRSLLVPNF | 0.67 ± 0.07
26 | VSSAGRPRGFLP | 0.671 ± 0.01

Row | Sequence | protein stability index
27 | VSSELLFLVVRF | 0.543 ± 0.0089
28 | VSTVFGCDICST | 0.701 ± 0.034
29 | VSVGEDGNRPTC | 0.645 ± 0.071
30 | VSVGGVWGQCVA | 0.6618 ± 0.0047
31 | VSVGLGRCSIFW | 0.7217 ± 0.0048
32 | VTAIVLSVLSGC | 0.556 ± 0.022
33 | VTEGGGGGKGRG | 0.6917 ± 0.0064
34 | VTGPLSSDSSFT | 0.672 ± 0.017
35 | VTGTQGELGSFV | 0.689 ± 0.11
36 | VTIDETMSKGIN | 0.698 ± 0.045
37 | VTSRSFYRVSPL | 0.68 ± 0.14
38 | VTSTVPRFPQFT | 0.667 ± 0.014
39 | VTTKMQVAGSRK | 0.6377 ± 0.00065
40 | VVAGCLWGEYAT | 0.702 ± 0.17
41 | VVAPETTPFSPR | 0.7193 ± 0.007
42 | VVCLGGVVLPRV | 0.65788 ± 0.00012
43 | VVEPEVCLPSMR | 0.6942 ± 0.0032
44 | VVFFPVLSYFFR | 0.649 ± 0.064
45 | VVFQSLPCLSPP | 0.758 ± 0.037
46 | VVGAGDWRWGVW | 0.78884 ± 0.00041
47 | VVGAIVILRGLR | 0.632 ± 0.018
48 | VVGALRFSDLFK | 0.73 ± 0.042
49 | VVGAVFFGCRLL | 0.6 ± 0.15
50 | VVGGVLRFLLLW | 0.599 ± 0.013
51 | VVGPVLTCAVRF | 0.617 ± 0.076
52 | VVHSRSTPAHPH | 0.679 ± 0.12

Row | Sequence | protein stability index
53 | VVLGESSGGVGV | 0.643 ± 0.097
54 | VVPSRCCQRLRK | 0.716 ± 0.035
55 | VVRLRCSVGWCS | 0.575 ± 0.011
56 | VVRQDQPDLKSS | 0.691 ± 0.008
57 | VVRRHKRVLMRF | 0.659 ± 0.015
58 | VVSDGARLVWGG | 0.754 ± 0.12
59 | VVSYFFSNDVLH | 0.752 ± 0.073
60 | VVSYVHTQPPLS | 0.684 ± 0.073
61 | VVTFSRSDIVLR | 0.694 ± 0.076
62 | VVVFPYCPLPLV | 0.597 ± 0.076
63 | VVVGVGGGVDMG | 0.685 ± 0.0082
64 | VVVSDFRSCNMS | 0.736 ± 0.043
65 | VVVVRCGWGGCG | 0.592 ± 0.012
66 | VWASVRRIFRVG | 0.554 ± 0.0058
67 | VWGVRVVCGFTV | 0.533 ± 0.0038
68 | VWLGGRECVVRG | 0.597 ± 0.02
69 | VWRGVWQVVVGG | 0.5227 ± 0.0013
70 | VWSDGCWVDWLL | 0.733 ± 0.13
71 | VWSGGCVSRWSG | 0.745 ± 0.15
72 | VWSLGLSVVGLW | 0.649 ± 0.092
73 | VYFLRLERVPSF | 0.696 ± 0.017
74 | VYGGFGGGRWVI | 0.702 ± 0.087
75 | VYGVLLGWGCVV | 0.577 ± 0.015
76 | VYGWSPLSEARN | 0.738 ± 0.025
77 | VYLVVSSSMDYR | 0.633 ± 0.078
78 | VYNLHRGLFLSL | 0.512 ± 0.0097

Row | Sequence | protein stability index
79 | VYSAGRAVGLAG | 0.673 ± 0.035
80 | VYSGYVFRKDGI | 0.695 ± 0.024
81 | VYTNAVPLSSNA | 0.817 ± 0.1
82 | VYVEMWGTSENW | 0.653 ± 0.011
83 | WAGGGFVVGCVG | 0.629 ± 0.062
84 | WALRADGGERTG | 0.684 ± 0.021
85 | WAPFGKMVGGPW | 0.785 ± 0.027
86 | WAPPPPYSPFSL | 0.704 ± 0.0098
87 | WARFRKGEVRSG | 0.748 ± 0.072
88 | WARLVSSSLAAT | 0.61763 ± 0.00038
89 | WAVGGKVNEVIE | 0.757 ± 0.06
90 | WCGSSGLFLVVW | 0.594 ± 0.017
91 | WCTLNGASLCLH | 0.7719 ± 0.0067
92 | WCWTYLRFSVEL | 0.677 ± 0.055
93 | WDGGGGGFGLVV | 0.755 ± 0.06
94 | WDGWPTRAGGTG | 0.7141 ± 0.0069
95 | WEGVGERVGGGA | 0.638 ± 0.017
96 | WENMDKCSKGLI | 0.6767 ± 0.0033
97 | WERRRGVCGGVW | 0.707 ± 0.05
98 | WEWGCRVEELSG | 0.742 ± 0.0086
99 | WFFRSVVPRCGG | 0.63 ± 0.038
100 | WFPSSLPLTCIQ | 0.651 ± 0.084
101 | WGAGGGGWWGGV | 0.731 ± 0.03
102 | WGALVLAVRSAP | 0.642 ± 0.037
103 | WGEGSGRVWEIS | 0.679 ± 0.019
104 | WGGAGRVWVLGP | 0.696 ± 0.019

Row | Sequence | protein stability index
105 | WGGGGRGWGSRG | 0.684 ± 0.057
106 | WGGGSGRRIGCR | 0.70604 ± 0.00021
107 | WGGLGGREPGGS | 0.74 ± 0.078
108 | WGGVRRVRVGGQ | 0.723 ± 0.053
109 | WGLCWFGCLWGR | 0.692 ± 0.033
110 | WGLGVGGCGWVG | 0.67 ± 0.018
111 | WGPGGGGVSDGM | 0.768 ± 0.019
112 | WGQGTGFWGLFG | 0.681 ± 0.024
113 | WGRGEWKRGQEA | 0.743 ± 0.053
114 | WGRTRGDHGGKK | 0.686 ± 0.04
115 | WGSWCLVPDGNE | 0.717 ± 0.084
116 | WGTTLMYKAKKA | 0.616 ± 0.024
117 | WHACAGWLGQKG | 0.71 ± 0.078
118 | WHGDDSSIWQVG | 0.791 ± 0.036
119 | WHGSVPHLWFPP | 0.59 ± 0.026
120 | WHIEGFGQYYSL | 0.736 ± 0.019
121 | WHRCQWTPASRP | 0.733 ± 0.05
122 | WIGHALPSSNSH | 0.675 ± 0.056
123 | WKKSIKKDTREM | 0.721 ± 0.012
124 | WKPGSPGCQAFR | 0.6031 ± 0.0017
125 | WKRDSCFFIEAG | 0.638 ± 0.042
126 | WLAVVGRDGFLG | 0.729 ± 0.016
127 | WLFSSRDSGACR | 0.8029 ± 0.0011
128 | WLGGIFRNKVFT | 0.621 ± 0.013
129 | WLGSGESVGHAG | 0.686 ± 0.067
130 | WLGTGIILPITG | 0.793 ± 0.13

Row | Sequence | protein stability index
131 | WLGWIVNNSNTE | 0.753 ± 0.058
132 | WLLSVYSVGTDV | 0.589 ± 0.2
133 | WLSDSCRMNSEV | 0.666 ± 0.035
134 | WLSLPLAHLFSP | 0.681 ± 0.047
135 | WLVGSGGVWSGR | 0.706 ± 0.019
136 | WLVRNVVGGGLC | 0.701 ± 0.046
137 | WLVSPPTPFPLP | 0.6422 ± 0.0039
138 | WMDNTKKGNKDS | 0.736 ± 0.06
139 | WMSGETTHTGRP | 0.742 ± 0.026
140 | WMTFTTAVTDGG | 0.656 ± 0.046
141 | WNLESKTEARTR | 0.704 ± 0.049
142 | WNRNVEILSALA | 0.548 ± 0.012
143 | WNRSAFLSSGTI | 0.67578 ± 3.2e-05
144 | WNRVPEWTREPL | 0.719 ± 0.022
145 | WNSISGRTVVYM | 0.709 ± 0.092
146 | WPAFYTSRLLLR | 0.615 ± 0.034
147 | WPPPPPYSPFSL | 0.737 ± 0.02
148 | WPVALAPTRLEI | 0.608 ± 0.072
149 | WQIRREMFECGL | 0.677 ± 0.025
150 | WRAGGGGGPAGV | 0.679 ± 0.029
151 | WRAGSGGGPLAS | 0.68 ± 0.043
152 | WRCAGGGGVGGG | 0.6956 ± 0.0011
153 | WRELGCFGVRGD | 0.732 ± 0.022
154 | WRLFFGVNLIKF | 0.622 ± 0.037
155 | WRSIQLVHDKRR | 0.6808 ± 0.0056
156 | WRVMCLQRCSGV | 0.541 ± 0.011

Row | Sequence | protein stability index
157 | WRYFLGKGRMSF | 0.742 ± 0.014
158 | WSDGGRGGGWGK | 0.656 ± 0.015
159 | WSPLFPLLASST | 0.678 ± 0.016
160 | WSREGGVVESVG | 0.709 ± 0.019
161 | WSRGGGGHKEAM | 0.639 ± 0.022
162 | WSRPAGVRSSLA | 0.7039 ± 0.00079
163 | WSRPVTFRIGLW | 0.653 ± 0.017
164 | WTGGEEGTAVQA | 0.676 ± 0.025
165 | WTGTTGQSLYLS | 0.733 ± 0.1
166 | WVAADTDGEPKH | 0.6986 ± 0.0057
167 | WVCLGWGVPRSG | 0.835 ± 0.031
168 | WVFSGTWSSVSG | 0.671 ± 0.027
169 | WVGGGGGPSGVV | 0.733 ± 0.042
170 | WVGWVACGAGGG | 0.651 ± 0.061
171 | WVHTLHARIGCQ | 0.625 ± 0.046
172 | WVKGRVKIEGGQ | 0.68 ± 0.042
173 | WVLFWWRGRSGR | 0.665 ± 0.042
174 | WVPISPFLTPSH | 0.716 ± 0.025
175 | WVSILRWDACSR | 0.685 ± 0.014
176 | WVSRDFLVEAVW | 0.557 ± 0.026
177 | WVTSSTRGRSGS | 0.644 ± 0.033
178 | WWGCLGGRAGSR | 0.695 ± 0.028
179 | WWGFGRVCGGGV | 0.774 ± 0.092
180 | WYYTCSEFSIYN | 0.693 ± 0.0071
181 | YAAQLGLGVLVG | 0.6 ± 0.0077
182 | YACADVSDPLSV | 0.721 ± 0.019

Row | Sequence | protein stability index
183 | YAGDPEAAAEWG | 0.68 ± 0.052
184 | YCRGGGLAKREV | 0.689 ± 0.021
185 | YDCPLPPSGLTI | 0.688 ± 0.036
186 | YDYASTCGSCIY | 0.774 ± 0.024
187 | YERPIVAAVRSR | 0.724 ± 0.02
188 | YESHVLDRMDGR | 0.651 ± 0.026
189 | YFALLMLTPPPP | 0.636 ± 0.022
190 | YFDVFLRLAFSR | 0.655 ± 0.04
191 | YFFRLLYRLWSR | 0.676 ± 0.092
192 | YFLCPPTSPHRH | 0.736 ± 0.13
193 | YGGAWGGVIHVC | 0.657 ± 0.0081
194 | YGILSVRGSLSR | 0.76 ± 0.065
195 | YGLSVSSLRLWP | 0.6853 ± 0.0051
196 | YGMETVAVYTEG | 0.666 ± 0.019
197 | YGPDQIGPRPGL | 0.69 ± 0.041
198 | YGRLPNWGASTE | 0.714 ± 0.014
199 | YIDDGVVENVRV | 0.681 ± 0.02
200 | YINFQKMRKKFD | 0.723 ± 0.04
201 | YINILKLVMNQD | 0.736 ± 0.052
202 | YKNKRSNKRKHK | 0.702 ± 0.0098
